Consider one molecule from article PMC11286772, “Structural basis of antagonist selectivity in endothelin receptors” (Cell Discovery, 2024).

This test deals with T1, ETA, wild type, as used in the size exclusion chromatography analysis with Fab301 (Homo sapiens, UniProt P25101).
T1 construct: endothelin receptor type A (ETA), human; Probably one of the insect cell constructs m1 or m3; also called WT; WT ETA
As to the kind of experiment: SEC; retention time of each ETA ECL2 alanine mutant–Fab301 complex against the WT–Fab301 complex. On the technique in general: Size exclusion chromatography separates by hydrodynamic size, large species first.

T1 sequence (P25101 21-427): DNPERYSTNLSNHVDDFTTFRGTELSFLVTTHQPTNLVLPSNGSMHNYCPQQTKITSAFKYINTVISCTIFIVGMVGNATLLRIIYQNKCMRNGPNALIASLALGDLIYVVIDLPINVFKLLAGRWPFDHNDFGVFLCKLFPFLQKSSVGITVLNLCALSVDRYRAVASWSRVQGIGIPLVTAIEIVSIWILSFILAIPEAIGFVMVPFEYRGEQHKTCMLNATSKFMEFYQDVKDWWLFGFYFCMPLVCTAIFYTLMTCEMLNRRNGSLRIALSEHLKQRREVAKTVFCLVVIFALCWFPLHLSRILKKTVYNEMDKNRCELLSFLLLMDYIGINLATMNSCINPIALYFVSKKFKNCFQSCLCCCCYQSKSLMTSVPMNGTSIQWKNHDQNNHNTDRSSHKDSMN

B1: Fab301, Fab fragment of the anti-ETA monoclonal antibody Getagozumab (Fab, V domains shown)
VH: QVTLKESGPTLVKPTQTLTLTCTFSGFSLTTSGLGVAWIRQPPGKALEWLAHIWSDGDTRYYPALKNRLTITKDTSKNQVVLTMTNMDPVDTATYYCAHMKDDSLYFDNWGQGTLVTVSS
VL: EIVLTQSPDFQSVTPKEKVTITCRASQNIGTSIHWYQQKPDQYPKLLIKYASKSISGVPSRFSGSGSGTDFTLTINSLEAEDAATYYCQHSYSFPWTFGQGTKVEIK
notes: Purified on Ni-NTA, so one chain probably carries a His tag; In the ambrisentan and zibotentan maps the dynamic regions of Fab301 were masked out; also called ETA-specific antibody; Getagozumab Fab; source: Hi5 insect cells, baculovirus (pFastBac Dual), from the culture supernatant, purified (Ni-NTA, Superdex 200)
B1: the binding result is listed as “binds”.
